Assay results taken from patent US20220153793A1 (SINAI HEALTH SYSTEM, published 2022).

B1: MBP-TOPBP1756-999-3A (other, not shown: large carriers)
chain: LNSDTAEHPGTRLQTHRKTVVTPLDMNRFQSKAFRAVVSQHARQVAASPAVGQPLQKEPSLHLDTPSKFLSKDKLFKPSAAAKDALAALETPGRPSQQKRKPSTPLSEVIVKNLQLALANSSRNAVALSASPQLKEAQSEKEEAPKPLHKVVVCVSKKLSKKQSELNGIAASLGADYRWSFDETVTHFIYQGRPNDTNREYKSVKERGVHIVSEHWLLDCAQECKHLPESLYPHTYNPKMSLDI
B2: mCherry-LacR-TOPBP1 3A (other)
chain: MSRNDKEPFFVKFLKSSDNSKCFFKALESIKEFQSEEYLQIITEEEALKIKENDRSLYICDPFSGVVFDHLKKLGCRIVGPQVVIFCMHHQRCVPRAEHPVYNMVMSDVTISCTSLEKEKREEVHKYVQMMGGRVYRDLNVSVTHLIAGEVGSKKYLVAANLKKPILLPSWIKTLWEKSQEKKITRYTDINMEDFKCPIFLGCIICVTGLCGLDRKEVQQLTVKHGGQYMGQLKMNECTHLIVQEPKGQKYECAKRWNVHCVTTQWFFDSIEKGFCQDESIYKTEPRPEAKTMPNSSTPTSQINTIDSRTLSDVSNISNINASCVSESICNSLNSKLEPTLENLENLDVSAFQAPEDLLDGCRIYLCGFSGRKLDKLRRLINSGGGVRFNQLNEDVTHVIVGDYDDELKQFWNKSAHRPHVVGAKWLLECFSKGYMLSEEPYIHANYQPVEIPVSHKPESKAALLKKKNSSFSKKDFAPSEKHEQADEDLLSQYENGSSTVVEAKTSEARPFNDSTHAEPLNDSTHISLQEENQSSVSHCVPDVSTITEEGLFSQKSFLVLGFSNENESNIANIIKENAGKIMSLLSRTVADYAVVPLLGCEVEATVGEVVTNTWLVTCIDYQTLFDPKSNPLFTPVPVMTGMTPLEDCVISFSQCAGAEKESLTFLANLLGASVQEYFVRKSNAKKGMFASTHLILKERGGSKYEAAKKWNLPAVTIAWLLETARTGKRADESHFLIENSTKEERSLETEITNGINLNSDTAEHPGTRLQTHRKTVVTPLDMNRFQSKAFRAVVSQHARQVAASPAVGQPLQKEPSLHLDTPSKFLSKDKLFKPSAAAKDALAALETPGRPSQQKRKPSTPLSEVIVKNLQLALANSSRNAVALSASPQLKEAQSEKEEAPKPLHKVVVCVSKKLSKKQSELNGIAASLGADYRWSFDETVTHFIYQGRPNDTNREYKSVKERGVHIVSEHWLLDCAQECKHLPESLYPHTYNPKMSLDISAVQDGRLCNSRLLSAVSSTKDDEPDPLILEENDVDNMATNNKESAPSNGSGKNDSKGVLTQTLEMRENFQKQLQEIMSATSIVKPQGQRTSLSRSGCNSASSTPDSTRSARSGRSRVLEALRQSRQTVPDVNTEPSQNEQIIWDDPTAREERARLASNLQWPSCPTQYSELQVDIQNLEDSPFQKPLHDSEIAKQAVCDPGNIRVTEAPKHPISEELETPIKDSHLIPTPQAPSIAFPLANPPVAPHPREKIITIEETHEELKKQYIFQLSSLNPQERIDYCHLIEKLGGLVIEKQCFDPTCTHIVVGHPLRNEKYLASVAAGKWVLHRSYLEACRTAGHFVQEEDYEWGSSSILDVLTGINVQQRRLALAAMRWRKKIQQRQESGIVEGAFSGWKVILHVDQSREAGFKRLLQSGGAKVLPGHSVPLFKEATHLFSDLNKLKPDDSGVNIAEAAAQNVYCLRTEYIADYLMQESPPHVENYCLPEAISFIQNNKELGTGLSQKRKAPTEKNKIKRPRVH
notes: also called Flag-LacR-TOPBP1^3A; not shown: The mCherry-LacR carrier (Flag-LacR in the legend and methods) and its linker

What was measured:
GST-CIP2A (1-560) = biological target: T1, GST-CIP2A (1-560) (human, UniProt Q8TCG1 1-560); assay: GST pull-down with bacterially produced proteins on glutathione resin, immunoblot anti-MBP
T1 construct: Expressed in Escherichia coli and coupled to glutathione sepharose 4B; not shown: Glutathione S-transferase tag of vector pGEX4T1
Experimental: MBP and GST proteins expressed in Escherichia coli were purified on amylose (New England Biolabs) or glutathione sepharose 4B (GE Healthcare) resins according to the batch method described by the manufacturer and stored in 20 mM Tris-HCl pH 8.0, 150 mM NaCl, 1 mM DTT, 5% glycerol. […] Beads were extensively washed prior to analysis by immunoblotting.

CIP2A (endogenous) = CIP2A (endogenous) (human, UniProt Q8TCG1 1-905); assay: LacR/LacO assay in U2OS lacO256 cells, endogenous CIP2A at the lacO array
Experimental: 1.8×10⁵ cells were seeded in 6-well plates containing glass coverslips. […] Cells were fixed with 4% PFA 48 h after transfection and stained for immunofluorescence. […] After 0.1 mg/mL nourseothricin selection and cell expansion, 2×10⁵ cells were seeded in 6-well plates. […] 24 h later, cells were seeded in a 96-well plate (˜20,000 cells per well), cultured for 24 h and fixed with 2% PFA and stained for immunofluorescence. Images were acquired on an IN Cell Analyzer 6000 automated microscope (GE Life Sciences) with a 60× objective.

Binder	binding result (GST-CIP2A (1-560))	binding result (CIP2A (endogenous))
B1	no binding	
B2		no binding
